Legend:
Assay in all cases: EMSA
[1] = tested on: PG-ptau (tau 1N4R phosphorylated by PKA and GSK-3β), P10636-7; conditions: EMSA: 20 nM DNA or nucleosome, 20 mM HEPES pH 7.2, 10 mM NaCl (or 150), 0.5 mM TCEP, 0.1% Tween-20, 5% sucrose, room temperature 20 min, FA: 10 nM DNA, same …
[2] = tested on: tau 1N4R, P10636-7; conditions: Hill fit, EMSA: 20 nM DNA or nucleosome, 20 mM HEPES pH 7.2, 10 mM NaCl (or 150), 0.5 mM TCEP, 0.1% Tween-20, 5% sucrose, room temperature 20 min, FA: 10 nM DNA, same …
Chain of tau 1N4R, P10636-7 (P10636 other isoform, or with tags, fused parts or gaps): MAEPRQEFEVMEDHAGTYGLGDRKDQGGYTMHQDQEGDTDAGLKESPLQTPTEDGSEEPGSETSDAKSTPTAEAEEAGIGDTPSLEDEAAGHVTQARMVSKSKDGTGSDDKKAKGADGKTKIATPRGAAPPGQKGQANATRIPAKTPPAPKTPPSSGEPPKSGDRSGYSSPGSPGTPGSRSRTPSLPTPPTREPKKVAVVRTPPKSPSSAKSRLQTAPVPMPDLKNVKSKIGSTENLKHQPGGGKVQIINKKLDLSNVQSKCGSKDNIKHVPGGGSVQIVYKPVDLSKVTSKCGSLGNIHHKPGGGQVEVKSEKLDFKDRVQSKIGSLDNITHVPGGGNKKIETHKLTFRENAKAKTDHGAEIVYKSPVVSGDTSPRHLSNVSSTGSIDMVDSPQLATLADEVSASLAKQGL

[3] = tested on: tau ΔPRD-DBR (1N4R) del191-211, P10636-7; conditions: EMSA: 20 nM DNA or nucleosome, 20 mM HEPES pH 7.2, 10 mM NaCl (or 150), 0.5 mM TCEP, 0.1% Tween-20, 5% sucrose, room temperature 20 min; FA: 10 nM DNA, same …
Chain of tau ΔPRD-DBR (1N4R) del191-211, P10636-7 (P10636 other isoform, or with tags, fused parts or gaps mutant): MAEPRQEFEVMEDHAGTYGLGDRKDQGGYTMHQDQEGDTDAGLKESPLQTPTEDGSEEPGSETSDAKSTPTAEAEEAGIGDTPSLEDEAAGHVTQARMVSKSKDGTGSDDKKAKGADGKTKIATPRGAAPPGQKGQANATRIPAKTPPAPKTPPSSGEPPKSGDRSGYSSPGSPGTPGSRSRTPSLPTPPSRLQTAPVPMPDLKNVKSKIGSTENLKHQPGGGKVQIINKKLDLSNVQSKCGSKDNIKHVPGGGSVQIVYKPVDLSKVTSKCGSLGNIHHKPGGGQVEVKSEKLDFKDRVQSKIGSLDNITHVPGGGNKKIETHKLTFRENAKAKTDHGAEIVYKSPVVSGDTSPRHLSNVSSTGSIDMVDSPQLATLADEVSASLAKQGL

Chain of PG-ptau (tau 1N4R phosphorylated by PKA and GSK-3β), P10636-7 (P10636 other isoform, or with tags, fused parts or gaps): as the sequence (P10636 other isoform, or with tags, fused parts or gaps) above

Row | Sequence | Kd ([1]; 150 mM NaCl (Fig. S12 legend says 10 mM)) [µM] | Kd [1] [µM] | Kd ([2]; 10 mM NaCl) [µM] | Kd ([2]; 150 mM NaCl) [µM] | Kd [3] [µM]
1 | ACTACGCGGCCGCCCTGGAGAATCCCGGTGCCGAGGCCGCTCAATTGGTCGTAGACAGCTCTAGCACCGCTTAAACGCACGTACGCGCTGTCCCCCGCGTTTTAACCGCCAAGGGGATTACTCCCTAGTCTCCAGGCACGTGTCAGATATATACATCCTGTGCATGTAAGATCCAGT (double strand) [177 bp DNA (601)] | 0.426 | 0.241 | 0.135 | 0.188 | 0.41
2 | ACTACGCGGCCGCCCTGGAGAATCCCGGTGCCGAGGCCGCTCAATTGGTCGTAGACAGCTCTAGCACCGCTTAAACGCACGTACGCGCTGTCCCCCGCGTTTTAACCGCCAAGGGGATTACTCCCTAGTCTCCAGGCACGTGTCAGATATATACATCCTGTGCATGTAAGATCCAGT (double strand) [177 bp mononucleosome] |  | 0.166 | 0.105 |  | 
3 | CTGGAGAATCCCGGTGCCGAGGCCGCTCAATTGGTCGTAGACAGCTCTAGCACCGCTTAAACGCACGTACGCGCTGTCCCCCGCGTTTTAACCGCCAAGGGGATTACTCCCTAGTCTCCAGGCACGTGTCAGATATATACATCCTGT (double strand) [147 bp mononucleosome (linker-free)] |  |  | 0.0834 |  | 
